Assay results published in the Immune Epitope Database (IEDB).

What was measured:
[1] = target: HLA-A*01:01; assay: IEDB peptide-MHC binding, purified MHC/competitive/fluorescence; filed as Kd, often an IC50 or EC50 that approximates it; ≥ and ≤ were set here for values at or beyond the usual limits of such assays
[2] = target: HLA-A*26:01; assay: as above
[3] = target: HLA-B*39:01; assay: as above
[4] = target: HLA-B*57:01; assay: as above
[5] = target: HLA-B*51:01; assay: as above
[6] = target: HLA-B*27:03; assay: as above
[7] = target: HLA-A*69:01; assay: as above
[8] = target: HLA-B*18:01; assay: as above
[9] = target: HLA-B*15:01; assay: as above
[10] = target: HLA-B*15:17; assay: as above
[11] = target: HLA-A*02:01; assay: as above
[12] = target: HLA-B*46:01; assay: as above
[13] = target: HLA-A*02:03; assay: IEDB peptide-MHC binding, purified MHC/direct/fluorescence; filed as Kd, often an IC50 or EC50 that approximates it; ≥ and ≤ were set here for values at or beyond the usual limits of such assays
[14] = target: HLA-A*02:12; assay: as above
[15] = target: HLA-A*02:19; assay: as above
[16] = target: HLA-A*01:01; assay: as above
[17] = target: HLA-A*02:16; assay: as above
[18] = target: HLA-A*03:01; assay: as above
[19] = target: HLA-A*23:01; assay: as above
[20] = target: HLA-A*68:02; assay: as above
[21] = target: HLA-A*24:03; assay: as above
[22] = target: HLA-B*07:02; assay: as above; details: source organism: Vibrio vulnificus YJ016
[23] = target: HLA-A*30:01; assay: as above; details: source organism: Vibrio vulnificus
[24] = target: HLA-A*26:01; assay: as above; details: source organism: Vibrio vulnificus YJ016
[25] = target: HLA-B*08:01; assay: as above; details: source organism: Vibrio vulnificus YJ016
[26] = target: HLA-B*40:01; assay: as above; details: source organism: Vibrio vulnificus YJ016
[27] = target: HLA-A*11:01; assay: as above
[28] = target: HLA-B*58:01; assay: as above; details: source organism: Vibrio vulnificus YJ016
[29] = target: HLA-A*69:01; assay: as above; details: source organism: Vibrio vulnificus YJ016
[30] = target: HLA-B*15:01; assay: as above
[31] = target: HLA-A*02:01; assay: as above; details: source organism: Vibrio vulnificus YJ016
[32] = target: HLA-B*07:02; assay: IEDB peptide-MHC binding, purified MHC/competitive/fluorescence; ≥ and ≤ were set here for values at or beyond the usual limits of such assays
[33] = target: HLA-B*08:01; assay: as above
[34] = target: HLA-A*02:01; assay: as above; details: source organism: Zaire ebolavirus
[35] = target: HLA-B*15:01; assay: as above
[36] = target: HLA-A*24:02; assay: as above
[37] = target: HLA-A*03:01; assay: IEDB peptide-MHC binding, purified MHC/competitive/fluorescence; filed as Kd, often an IC50 or EC50 that approximates it; ≥ and ≤ were set here for values at or beyond the usual limits of such assays; details: source organism: Escherichia coli O157:H7 str. Sakai
[38] = target: HLA-A*02:11; assay: IEDB peptide-MHC binding, purified MHC/direct/fluorescence; filed as Kd, often an IC50 or EC50 that approximates it; ≥ and ≤ were set here for values at or beyond the usual limits of such assays
[39] = target: HLA-A*29:02; assay: as above; details: source organism: Zaire ebolavirus
[40] = source organism: Escherichia coli
[41] = source organism: Influenza A virus (A/Memphis/1/1978(H1N1))
[42] = source organism: Influenza A virus H3N2
[43] = source organism: Vibrio vulnificus YJ016
[44] = source organism: Vibrio vulnificus
[45] = source organism: Vaccinia virus
[46] = source organism: Zaire ebolavirus
[47] = source organism: Sudan ebolavirus
[48] = source organism: Reston ebolavirus
[49] = source organism: Bacillus anthracis str. A0488
[50] = source organism: Rickettsia sibirica 246
[51] = source organism: Vaccinia virus Copenhagen

## AAPLMQSLY
[1]; [40]
  Kd: ≥ 20 µM
[2]; [40]
  Kd: 1.33 µM

## AVDADDSHF
[3]; [41]
  Kd: ≥ 20 µM
[4]; [41]
  Kd: ≥ 20 µM
[5]; [41]
  Kd: ≥ 20 µM
[2]; [41]
  Kd: ≥ 20 µM
[6]; [41]
  Kd: ≥ 20 µM
[7]; [41]
  Kd: ≥ 20 µM
[8]; [41]
  Kd: ≥ 20 µM
[9]; [41]
  Kd: ≥ 20 µM
[10]; [41]
  Kd: ≥ 20 µM
[11]; [41]
  Kd: ≥ 20 µM
[12]; [41]
  Kd: ≥ 20 µM
[13]; [42]
  Kd: ≥ 20 µM
[14]; [42]
  Kd: ≥ 20 µM
[15]; [42]
  Kd: ≥ 20 µM
[16]; source organism: Influenza A virus (A/New York/140/1999(H3N2))
  Kd: ≥ 20 µM
[17]; [42]
  Kd: ≥ 20 µM
[18]; [42]
  Kd: ≥ 20 µM
[19]; [42]
  Kd: ≥ 20 µM
[20]; [42]
  Kd: ≥ 20 µM
[21]; [42]
  Kd: ≥ 20 µM

## DAYGFHNYK
[22]
  Kd: ≥ 20 µM
[23]
  Kd: 1.11 µM
[16]; [43]
  Kd: ≥ 20 µM
[24]
  Kd: ≥ 20 µM
[25]
  Kd: ≥ 20 µM
[26]
  Kd: ≥ 20 µM
[18]; [44]
  Kd: 0.216 µM
[27]; [44]
  Kd: 0.13 µM
[28]
  Kd: ≥ 20 µM
[29]
  Kd: ≥ 20 µM
[21]; [43]
  Kd: ≥ 20 µM
[30]; [43]
  Kd: ≥ 20 µM
[31]
  Kd: ≥ 20 µM

## EPPLVRHAC
[32]; [45]
  IC50: ≥ 162 µM
[33]; [45]
  IC50: ≥ 521 µM

## ERLAKLTEA
[33]; [46]
  IC50: ≥ 106 µM
[34]
  IC50: ≥ 175 µM

## FLLIHQGMH
[33]; [46]
  IC50: ≥ 230 µM
[35]; [46]
  IC50: ≥ 230 µM
[34]
  IC50: 9.52 µM

## FLLQRWGGT
[33]; [46]
  IC50: 6.33 µM
[34]
  IC50: 8.24 µM

## FLRYLLFGI
[32]; [45]
  IC50: ≥ 1010 µM
[36]; [45]
  IC50: 16.5 µM
[33]; [45]
  IC50: ≥ 193 µM

## GFPRCRYVH
[32]; [47]
  IC50: ≥ 82.4 µM
[36]; [47]
  IC50: 1.22 µM
[33]; [46]
  IC50: 12.3 µM

## GSQYVSLAY
[1]; source organism: Escherichia coli O157:H7 str. Sakai
  Kd: 0.0321 µM
[37]
  Kd: 4.5 µM

## GVPPKVVSY
[3]; [48]
  Kd: ≥ 20 µM
[4]; [48]
  Kd: ≥ 20 µM
[5]; [48]
  Kd: ≥ 20 µM
[2]; [48]
  Kd: ≥ 20 µM
[6]; [48]
  Kd: ≥ 20 µM
[7]; [48]
  Kd: ≥ 20 µM
[8]; [48]
  Kd: ≥ 20 µM
[11]; [48]
  Kd: ≥ 20 µM
[12]; [48]
  Kd: ≥ 20 µM
[13]; [48]
  Kd: ≥ 20 µM
[14]; [48]
  Kd: ≥ 20 µM
[15]; [48]
  Kd: ≥ 20 µM
[17]; [48]
  Kd: ≥ 20 µM
[38]; [48]
  Kd: ≥ 20 µM
[18]; [48]
  Kd: ≥ 20 µM
[19]; [48]
  Kd: ≥ 20 µM
[20]; [48]
  Kd: ≥ 20 µM
[21]; [48]
  Kd: ≥ 20 µM
[30]; source organism: Reston ebolavirus - Reston
  Kd: 2.56 µM
[35]; [47]
  IC50: 57.8 µM

## LLDNSMFTY
[1]; [49]
  Kd: 0.0038 µM

## LSDAIFDDL
[3]; [46]
  Kd: ≥ 20 µM
[4]; [46]
  Kd: ≥ 20 µM
[5]; [46]
  Kd: ≥ 20 µM
[2]; [46]
  Kd: ≥ 20 µM
[6]; [46]
  Kd: ≥ 20 µM
[7]; [46]
  Kd: ≥ 20 µM
[8]; [46]
  Kd: ≥ 20 µM
[9]; [46]
  Kd: ≥ 20 µM
[10]; [46]
  Kd: ≥ 20 µM
[11]; [46]
  Kd: ≥ 20 µM
[12]; [46]
  Kd: ≥ 20 µM
[13]; [46]
  Kd: ≥ 20 µM
[14]; [46]
  Kd: ≥ 20 µM
[15]; [46]
  Kd: ≥ 20 µM
[16]; source organism: Sudan ebolavirus - Maleo (1979)
  Kd: 1.85 µM
[17]; [46]
  Kd: ≥ 20 µM
[38]; [46]
  Kd: ≥ 20 µM
[18]; [46]
  Kd: ≥ 20 µM
[19]; [46]
  Kd: ≥ 20 µM
[20]; [46]
  Kd: ≥ 20 µM
[21]; [46]
  Kd: ≥ 20 µM
[39]
  Kd: ≥ 20 µM

## SVANIDRIK
[3]; [50]
  Kd: ≥ 20 µM
[4]; [50]
  Kd: ≥ 20 µM
[5]; [50]
  Kd: ≥ 20 µM
[2]; [50]
  Kd: ≥ 20 µM
[6]; [50]
  Kd: ≥ 20 µM
[7]; [50]
  Kd: ≥ 20 µM
[8]; [50]
  Kd: ≥ 20 µM
[10]; [50]
  Kd: ≥ 20 µM
[11]; [50]
  Kd: ≥ 20 µM
[12]; [50]
  Kd: ≥ 20 µM
[13]; [50]
  Kd: ≥ 20 µM
[14]; [50]
  Kd: ≥ 20 µM
[15]; [50]
  Kd: ≥ 20 µM
[17]; [50]
  Kd: ≥ 20 µM
[38]; [50]
  Kd: ≥ 20 µM
[18]; [50]
  Kd: ≥ 20 µM
[19]; [50]
  Kd: ≥ 20 µM
[27]; [50]
  Kd: 0.006 µM
[20]; [50]
  Kd: ≥ 20 µM
[21]; [50]
  Kd: ≥ 20 µM

## TLDSEDGLY
[1]; [49]
  Kd: 0.0016 µM

## YANCSSISI
[32]; [51]
  IC50: ≥ 175 µM
[36]; [51]
  IC50: 1.33 µM
[33]; [51]
  IC50: ≥ 1080 µM
[35]; [51]
  IC50: 24.8 µM

## YRNKPSIAT
[33]; [45]
  IC50: ≥ 130 µM
